For two molecules, binding result and Kd value by peptide titration on T2 cells (50% of maximal IFNγ release, ELISA) results are on record in US20220064256A1 (published 2022).

In assay [1] the target is T1, CD22 peptide on HLA-A*02:04 (human).
T1 peptide: FLSNDTVQL
Nature of the assay: cytokine release.

The target of assay [2] is T2, CD22 peptide on HLA-A*02:10 (human).
T2 peptide: FLSNDTVQL
Nature of the assay: cytokine release.

In assay [3] the target is T3, CD22 peptide on HLA-A*02:08 (human).
T3 peptide: FLSNDTVQL
In words: cytokine release.

The target in assay [4] is T4, CD22 peptide on HLA-A*02:02 (human).
T4 peptide: FLSNDTVQL
Nature of the assay: cytokine release.

The target in assay [5] is T5, CD22 peptide on HLA-A*02:05 (human).
T5 peptide: FLSNDTVQL
Nature of the assay: cytokine release.

Assay [6] deals with T6, CD22 peptide on HLA-A*02:07 (human).
T6 peptide: FLSNDTVQL
Nature of the assay: cytokine release.

The target in assay [7] is CD22 peptide … (SEQ ID NO: 1) in the context of HLA-A*02:01 (human). In words: cell-based or functional assay.
For assay [8], the target named is T7, CD22 peptide on HLA-A*02:01 (human).
T7 peptide: FLSNDTVQL
In words: killing.

Assay [9] addresses T7, CD22 peptide on HLA-A*02:01. Nature of the assay: cytokine release.

B1: CD22 TCR (TCR, V domains shown)
Valpha: EDKVVQSPLSLVVHEGDTVTLNCSYEVTNFRSLLWYKQEKKAPTFLFMLTSSGIEKKSGRLSSILDKKELFSILNITATQTGDSAVYLCAVDNQGGKLIFGQGTELSVKP
Vbeta: GAVVSQHPSWVICKSGTSVKIECRSLDFQATTMFWYRQFPKQSLMLMATSNEGSKATYEQGVEKDKFLINHASLTLSTLTVTSAHPEDSSFYICSARPSGVYNEQFFGPGTRLTVL
Regarding B1, the binding result in assay [1] is “recognises”; in [2] it was “recognises”; in [3] it was “no recognition”; in assay [4] it was “no recognition”; in assay [5], “recognises”; in assay [6] it was “recognises”. In addition, in assay [8], the binding result is listed as “recognises”. Besides, in assay [7], the Kd value by peptide titration on T2 cells (50% of maximal IFNγ release, ELISA) came to 1.1e-08.

B2: CD22 TCR 3225 (TCR, V domains shown)
Valpha: EDKVVQSPLSLVVHEGDTVTLNCSYEVTNFRSLLWYKQEKKAPTFLFMLTSSGIEKKSGRLSSILDKKELFSILNITATQTGDSAVYLCAVDNQGGKLIFGQGTELSVKP
Vbeta: GAVVSQHPSWVICKSGTSVKIECRSLDFQATTMFWYRQFPKQSLMLMATSNEGSKATYEQGVEKDKFLINHASLTLSTLTVTSAHPEDSSFYICSAREAGVYNEQFFGPGTRLTVL
On to B2, for which the binding result in [9] is reported as “recognises”. Moreover, in assay [7], the Kd value by peptide titration on T2 cells (50% of maximal IFNγ release, ELISA) is 2.2e-08.
